US20220332804A1 (CSL INNOVATION, published 2022)

Columns and labels:
Assay in all cases: SPR, KD relative to WT C2;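 also: biacore SPR at 37 °C, anti-C2 mAbs captured via immobilised goat anti-human IgG, C2 alanine or serine surface mutants as analytes, 1:1 model fitted, double-referenced sensograms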
[1] = molecular target: T1, human C2 E433A (human, UniProt P06681 21-752)
T1 sequence: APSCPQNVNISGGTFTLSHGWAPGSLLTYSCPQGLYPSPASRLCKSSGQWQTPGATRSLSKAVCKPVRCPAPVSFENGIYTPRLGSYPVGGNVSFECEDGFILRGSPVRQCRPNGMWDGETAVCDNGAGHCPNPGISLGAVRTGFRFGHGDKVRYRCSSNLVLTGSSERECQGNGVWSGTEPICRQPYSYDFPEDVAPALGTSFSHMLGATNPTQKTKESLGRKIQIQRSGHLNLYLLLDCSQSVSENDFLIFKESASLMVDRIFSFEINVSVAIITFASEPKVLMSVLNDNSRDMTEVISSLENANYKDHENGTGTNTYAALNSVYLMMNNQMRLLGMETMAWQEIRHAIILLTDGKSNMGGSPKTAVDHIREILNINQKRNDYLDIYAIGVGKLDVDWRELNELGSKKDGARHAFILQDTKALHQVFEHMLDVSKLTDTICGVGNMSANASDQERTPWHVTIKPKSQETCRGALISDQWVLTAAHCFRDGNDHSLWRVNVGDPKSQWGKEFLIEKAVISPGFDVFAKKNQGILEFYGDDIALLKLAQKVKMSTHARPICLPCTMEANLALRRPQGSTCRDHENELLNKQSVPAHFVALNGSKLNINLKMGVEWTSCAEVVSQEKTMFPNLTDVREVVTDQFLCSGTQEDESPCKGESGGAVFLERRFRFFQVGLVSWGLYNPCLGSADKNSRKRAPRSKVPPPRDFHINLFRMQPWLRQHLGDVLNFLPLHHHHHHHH

[2] = molecular target: T2, human C2 H446A (human, UniProt P06681 21-752)
T2 sequence: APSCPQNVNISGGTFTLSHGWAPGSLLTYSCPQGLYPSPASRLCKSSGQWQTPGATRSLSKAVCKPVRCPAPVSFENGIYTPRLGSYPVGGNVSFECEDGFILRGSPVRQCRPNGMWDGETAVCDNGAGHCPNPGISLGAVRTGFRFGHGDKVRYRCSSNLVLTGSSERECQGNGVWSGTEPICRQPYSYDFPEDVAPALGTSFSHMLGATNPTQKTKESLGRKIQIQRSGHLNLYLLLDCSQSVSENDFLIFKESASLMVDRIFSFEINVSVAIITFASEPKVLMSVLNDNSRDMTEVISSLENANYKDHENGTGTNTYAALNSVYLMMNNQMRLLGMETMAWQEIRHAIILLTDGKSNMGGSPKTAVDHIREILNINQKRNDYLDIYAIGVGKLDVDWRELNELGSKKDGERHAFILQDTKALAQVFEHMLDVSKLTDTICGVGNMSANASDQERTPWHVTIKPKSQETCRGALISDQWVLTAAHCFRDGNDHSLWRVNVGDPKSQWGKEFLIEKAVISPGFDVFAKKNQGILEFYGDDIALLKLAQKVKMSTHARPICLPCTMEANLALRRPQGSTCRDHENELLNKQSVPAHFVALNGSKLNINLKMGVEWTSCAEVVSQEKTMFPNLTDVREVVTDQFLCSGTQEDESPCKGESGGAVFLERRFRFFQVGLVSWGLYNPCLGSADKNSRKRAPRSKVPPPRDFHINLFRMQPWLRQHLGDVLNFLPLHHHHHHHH

[3] = molecular target: T3, human C2 A436S (human, UniProt P06681 21-752)
T3 sequence: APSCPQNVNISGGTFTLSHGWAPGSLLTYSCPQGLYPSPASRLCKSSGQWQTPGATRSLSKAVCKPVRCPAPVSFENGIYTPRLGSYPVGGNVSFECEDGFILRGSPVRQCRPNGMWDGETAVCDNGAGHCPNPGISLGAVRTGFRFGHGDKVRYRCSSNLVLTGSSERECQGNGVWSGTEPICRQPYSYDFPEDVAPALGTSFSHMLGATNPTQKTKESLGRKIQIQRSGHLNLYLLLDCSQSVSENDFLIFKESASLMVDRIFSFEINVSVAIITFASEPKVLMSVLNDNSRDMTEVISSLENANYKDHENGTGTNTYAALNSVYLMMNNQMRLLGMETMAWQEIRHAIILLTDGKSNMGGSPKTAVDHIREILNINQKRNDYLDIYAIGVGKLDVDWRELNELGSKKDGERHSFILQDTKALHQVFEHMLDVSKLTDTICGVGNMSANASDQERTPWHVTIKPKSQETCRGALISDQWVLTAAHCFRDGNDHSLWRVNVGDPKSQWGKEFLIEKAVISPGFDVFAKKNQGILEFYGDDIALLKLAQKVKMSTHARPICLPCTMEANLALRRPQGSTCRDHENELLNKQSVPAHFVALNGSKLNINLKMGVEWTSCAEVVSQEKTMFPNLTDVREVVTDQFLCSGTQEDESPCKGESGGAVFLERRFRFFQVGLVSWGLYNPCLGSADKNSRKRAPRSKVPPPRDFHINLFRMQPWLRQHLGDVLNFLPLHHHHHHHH

[4] = molecular target: T4, human C2 N471A (human, UniProt P06681 21-752)
T4 sequence: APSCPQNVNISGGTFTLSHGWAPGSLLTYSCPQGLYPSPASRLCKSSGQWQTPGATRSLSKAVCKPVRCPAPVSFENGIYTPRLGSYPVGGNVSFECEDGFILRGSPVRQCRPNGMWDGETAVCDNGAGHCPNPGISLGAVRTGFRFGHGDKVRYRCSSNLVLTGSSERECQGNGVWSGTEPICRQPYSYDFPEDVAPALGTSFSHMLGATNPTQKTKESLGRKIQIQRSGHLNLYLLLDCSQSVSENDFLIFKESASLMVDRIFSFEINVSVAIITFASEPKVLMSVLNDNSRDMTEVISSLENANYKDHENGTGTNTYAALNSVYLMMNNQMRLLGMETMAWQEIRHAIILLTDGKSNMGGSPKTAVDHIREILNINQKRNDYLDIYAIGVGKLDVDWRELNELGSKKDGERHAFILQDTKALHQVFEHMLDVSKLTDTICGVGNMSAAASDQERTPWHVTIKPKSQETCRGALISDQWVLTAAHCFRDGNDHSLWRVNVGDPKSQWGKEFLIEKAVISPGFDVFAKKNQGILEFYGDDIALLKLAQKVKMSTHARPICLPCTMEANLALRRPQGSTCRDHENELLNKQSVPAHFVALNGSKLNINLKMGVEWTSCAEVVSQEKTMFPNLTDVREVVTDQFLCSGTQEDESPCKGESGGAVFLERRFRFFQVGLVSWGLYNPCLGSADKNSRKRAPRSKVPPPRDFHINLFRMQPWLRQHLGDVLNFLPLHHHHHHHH

B1: RF16-226 (antibody, human IgG4 S228P, lambda)
heavy: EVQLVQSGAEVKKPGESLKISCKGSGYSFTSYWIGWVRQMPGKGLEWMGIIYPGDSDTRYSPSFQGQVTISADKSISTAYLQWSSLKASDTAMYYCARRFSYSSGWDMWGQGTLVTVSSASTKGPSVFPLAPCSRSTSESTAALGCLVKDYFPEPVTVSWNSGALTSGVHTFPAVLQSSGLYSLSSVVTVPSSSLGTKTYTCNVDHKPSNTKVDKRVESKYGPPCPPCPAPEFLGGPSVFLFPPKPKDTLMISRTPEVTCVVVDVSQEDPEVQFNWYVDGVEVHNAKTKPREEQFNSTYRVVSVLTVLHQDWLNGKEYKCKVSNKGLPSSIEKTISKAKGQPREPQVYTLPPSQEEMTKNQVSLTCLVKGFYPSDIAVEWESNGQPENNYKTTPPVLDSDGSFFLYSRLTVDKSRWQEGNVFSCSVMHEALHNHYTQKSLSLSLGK
light: SYELTQPPSVSVSPGQTARITCSGDALTSKYVAWYQQKSGLAPLLVIYEDTRRPSGIPAKFSGSSSGSVATLTISGAHGDDEADYYCYSTDASGHQRVFGGGTKLTVLSQPKAAPSVTLFPPSSEELQANKATLVCLISDFYPGAVTVAWKADGSPVKAGVETTKPSKQSNNKYAASSYLSLTPEQWKSHRSYSCQVTHEGSTVEKTVAPTECS
notes: pH-dependent anti-C2 antibody from a phage display library; also called WT
Fold diff [1]: 0 fold
Fold diff [2]: 2 fold
Fold diff [3]: 1 fold
Fold diff [4]: 1 fold
